The data set concerns the molecule itself. The data set can be described thus: light scattering coupled to nanoDSF; Ola1p (4 μM in Fig. 3G) in 20 mM PIPES pH 7.0, 100 mM KCl, 1 mM TCEP; temperature ramp 0.5 °C/min from 20 °C to 70 °C; read between 38 and 42 °C. (In general: Differential scanning fluorimetry follows unfolding on heating by fluorescence.)

B1: Ola1p (natural protein, S. cerevisiae, UniProt P38219 1-394, looked up)
chain: MPPKKQVEEKKVLLGRPGNNLKAGIVGLANVGKSTFFQAITRCPLGNPANYPFATIDPEEARVIVPSPRFDKLCEIYKKTASEVPAHLTVYDIAGLTKGASAGEGLGNAFLSHIRSVDSIYQVVRCFDDAEIIHVEGDVDPVRDLEIINQELRLKDIEFAQKALEGAEKIAKRGGQSLEVKQKKEEMDLITKIIKLLESGQRVANHSWTSKEVEIINSMFLLTAKPCIYLINLSERDYIRKKNKHLLRIKEWVDKYSPGDLIIPFSVSLEERLSHMSPEDAEEELKKLQTISALPKIITTMRQKLDLISFFTCGPDEVREWTIRRGTKAPQAAGVIHNDLMNTFILAQVMKCEDVFEYKDDSAIKAAGKLMQKGKDYVVEDGDIIYFRAGAGKN
notes: Ola1p (Obg-like ATPase 1), S. cerevisiae, systematic name Ybr025c; The methods say that the MBP tag was cleaved with Precision protease; also called Ybr025c; MBP-Ola1p (before cleavage); source: insect cells (baculovirus expression system), purified (amylose resin, size-exclusion chromatography); not shown: MBP, N-terminal, cleaved
On to B1, for which the binding result was “binds”.

The values are drawn from PMC8531669, “Quantitative proteomics identifies the universally conserved ATPase Ola1p as a positive regulator of heat shock response in Saccharomyces cerevisiae” (The Journal of Biological Chemistry, 2021).
